This passage reports Kd results from publication PMC13364712, “Evolutionarily conserved short linear motifs drive actin filament binding” (Nature Cell Biology, 2026).

The assay concerns the target actin filaments (actin from Gallus gallus skeletal muscle) (Gallus gallus (chicken), UniProt P68139 1-377). Nature of the assay: co-sedimentation; 4 µM EGFP–SFM peptide with 0–200 µM actin filaments in F buffer, 1 h at room temperature, 100,000g for 30 min; pellet read by anti-EGFP western blot; one-site specific binding fit; apparent. Conditions: both partners purified. Background: A western blot detects proteins with antibodies after separation by electrophoresis.

B1: EGFP-tagged ESPNL SFM peptide (peptide)
chain: IQEWGVSVRTLRGNFESASGPLC
modifications: Limits from translated primers P11/P12 (7 residues either side of SFM 652-660). Construct also has an initiator Met before the peptide and a C-terminal linker-EGFP-TEV-His, left out.
For the molecule B1, the Kd stood at 6 µM.
